According to publication PMC7718258:

Tests used:
[1] = biological target: T1, mjCgi121;mjBud32;mjKae1;pfPcc1 (Methanocaldococcus jannaschii;Methanocaldococcus jannaschii;Methanocaldococcus jannaschii;Pyrococcus furiosus) (UniProt Q57646+Q58530+Q58530+Q9V1Z9); experiment: fluorescence polarization; conditions: 20 mM HEPES pH 7.5, 100 mM NaCl, 2 mM DTT; filter binding 50 nM 32P-tRNA, 1 h, room temperature; FP 50 nM 647-CCA; NMR 25 C with 10% D2O
T1 sequence 1: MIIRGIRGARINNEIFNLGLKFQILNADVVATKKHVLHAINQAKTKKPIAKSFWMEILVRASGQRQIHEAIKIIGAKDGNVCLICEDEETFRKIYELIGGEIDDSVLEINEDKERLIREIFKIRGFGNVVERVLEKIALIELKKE
T1 sequence 2: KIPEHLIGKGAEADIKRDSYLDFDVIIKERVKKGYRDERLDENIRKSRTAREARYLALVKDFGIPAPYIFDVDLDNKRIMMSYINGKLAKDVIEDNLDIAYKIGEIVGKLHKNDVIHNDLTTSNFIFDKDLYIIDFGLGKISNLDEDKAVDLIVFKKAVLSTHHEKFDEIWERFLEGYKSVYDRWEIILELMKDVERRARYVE
T1 sequence 3: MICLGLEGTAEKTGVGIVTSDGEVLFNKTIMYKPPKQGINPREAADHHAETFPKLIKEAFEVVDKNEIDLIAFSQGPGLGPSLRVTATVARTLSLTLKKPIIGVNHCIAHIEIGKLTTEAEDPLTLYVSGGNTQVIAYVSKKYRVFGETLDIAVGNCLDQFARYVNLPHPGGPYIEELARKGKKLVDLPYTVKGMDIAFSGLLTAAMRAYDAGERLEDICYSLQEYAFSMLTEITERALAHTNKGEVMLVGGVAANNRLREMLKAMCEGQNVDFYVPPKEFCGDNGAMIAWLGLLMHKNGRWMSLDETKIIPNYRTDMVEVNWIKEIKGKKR
T1 sequence 4: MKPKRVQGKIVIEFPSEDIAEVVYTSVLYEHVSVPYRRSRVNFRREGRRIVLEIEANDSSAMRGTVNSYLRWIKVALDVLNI

[2] = biological target: mjCgi121;mjBud32 E152R (Methanocaldococcus jannaschii;Methanocaldococcus jannaschii) (UniProt Q57646); experiment: competition; conditions: displacement of 647-CCA (FP), 0.8 uM protein; 20 mM HEPES pH 7.5, 100 mM NaCl, 2 mM DTT; filter binding 50 nM 32P-tRNA, 1 h, room temperature; FP 50 nM 647-CCA; NMR 25 C with 10% D2O
[3] = biological target: T2, mjCgi121;mjBud32 (Methanocaldococcus jannaschii;Methanocaldococcus jannaschii) (UniProt Q57646+Q58530); experiment: competition; conditions: displacement of 647-CCA (FP), 0.8 uM protein; 20 mM HEPES pH 7.5, 100 mM NaCl, 2 mM DTT; filter binding 50 nM 32P-tRNA, 1 h, room temperature; FP 50 nM 647-CCA; NMR 25 C with 10% D2O
T2 sequence 1: T1 sequence 1
T2 sequence 2: T1 sequence 2

[4] = biological target: mjCgi121;mjBud32 R60E (Methanocaldococcus jannaschii;Methanocaldococcus jannaschii) (UniProt Q57646); experiment: competition; conditions: displacement of 647-CCA (FP), 0.8 uM protein; 20 mM HEPES pH 7.5, 100 mM NaCl, 2 mM DTT; filter binding 50 nM 32P-tRNA, 1 h, room temperature; FP 50 nM 647-CCA; NMR 25 C with 10% D2O
[5] = biological target: T3, mjCgi121 (Methanocaldococcus jannaschii) (UniProt Q57646); experiment: competition; conditions: displacement of 647-CCA (FP); 20 mM HEPES pH 7.5, 100 mM NaCl, 2 mM DTT; filter binding 50 nM 32P-tRNA, 1 h, room temperature; FP 50 nM 647-CCA; NMR 25 C with 10% D2O
T3 sequence: T1 sequence 1

## CCGCCA [647-CCA]
[1]
  Kd: 263 nM

## mjtRNALysUUU
[2]
  IC50: 600 nM
[3]
  IC50: 1200 nM
[4]
  IC50: 7600 nM

## mjtRNAValCAC
[5]
  binding signal (fold less efficient than mjtRNALys): 7.3
